Reference: patent US10487118B2, “Factor involved in latent infection with herpes virus, and use thereof” (Virus Ikagaku Kenkyusho Inc., priority 2007, dated 2019)

Key:
[1] = test system: astrocyte-like glial cell line (U373); assay: Fluorescent antibody staining of CAML in SITH-1-expressing U373 cells; type: cell-based; conditions: SITH-1 expressed in U373 vs untreated U373 cells
Text: CAML is a protein that has been reported to show strong expression in lymphocytes and in a brain, and it is known that CAML has ability to increase an intracellular calcium concentration. Thus, in order to see whether the protein SITH-1 would be mediated by CAML to increase the intracellular calcium concentration, both an astrocyte-like glial cell line (U373) in which SITH-1 had been expressed and untreated U373 cells were stained by the fluorescent antibody technique using anti-SITH-1 antibodies and anti-CAML antibodies.

mice [2] = assay: Forced swimming test; type: in vivo
Method: (§1) SITH-1 having a glial fibrillary acidic protein (GFAP) promoter linked upstream of its open reading frame was injected into the brains of newborn mice using an adenovirus vector or a retrovirus vector. GFAP is a protein expressed specifically in glial cells such as astrocytes.
(§2) A tail suspension test and a forced swimming test were conducted to evaluate mental disorders; these tests are commonly used to observe patients with depression or manic-depressive illness. Specifically, mice into which SITH-1 was transferred using an adenovirus vector were subjected to a tail suspension test. […] Subsequently, mice into which SITH-1 was transferred using a retrovirus vector were subjected to a forced swimming test.

[3] = biological target: T1, calcium-signal modulating cyclophilin ligand (CAML) (Homo sapiens, UniProt P49069); assay: Binding of SITH-1 to host protein (yeast two-hybrid, in vitro pull-down, co-precipitation); conditions: yeast two-hybrid with human fetal brain cDNA library; GST pull-down; co-precipitation in 293T cells
T1 construct: made in house; host or cells: yeast (two-hybrid prey from a human fetal brain cDNA library); E. coli (pull-down); 293T cells (transfected, co-precipitation)
T1 sequence (P49069 1-296): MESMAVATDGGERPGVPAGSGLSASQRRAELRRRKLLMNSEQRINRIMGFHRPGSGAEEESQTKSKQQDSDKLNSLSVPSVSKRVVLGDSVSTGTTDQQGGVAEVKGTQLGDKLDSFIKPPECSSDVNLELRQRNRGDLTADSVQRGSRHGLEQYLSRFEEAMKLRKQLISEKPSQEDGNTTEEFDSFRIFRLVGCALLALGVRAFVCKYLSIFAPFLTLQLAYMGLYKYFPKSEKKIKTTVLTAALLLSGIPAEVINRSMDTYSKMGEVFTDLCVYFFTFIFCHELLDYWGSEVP
Method: To study the function of the protein SITH-1, a host protein to which the protein SITH-1 would bind within cells was identified. This was performed by screening of a human fetal brain cDNA library by means of yeast two-hybrid assay with the protein SITH-1 used as a bait.

mice [4] = assay: Motor activity in terms of wheel running activity; type: in vivo; conditions: vs EGFP control mice
Method: Next, an open reading frame of SITH-1 was linked downstream of a GFAP promoter, and expressed in glial cells of mice using an adenovirus vector; three weeks later, the mice were measured for their motor activity in terms of wheel running activity.
Subsequently, an open reading frame of SITH-1 was linked downstream of a GFAP promoter, and expressed in glial cells of mice using a lentivirus vector; eight weeks later, the mice were measured for their motor activity in terms wheel running activity.

mice [5] = assay: Tail suspension test; type: in vivo; conditions: SITH-1 transferred using adenovirus vector, GFAP promoter, injected into brains of newborn mice
Method: as §1, §2

[6] = test system: astrocyte-like glial cell line (U373); assay: Intracellular calcium concentration measured with Fura2 after thapsigargin stimulation; type: cell-based; conditions: SITH-1 transferred via retrovirus vector into U373, thapsigargin (TG) stimulation, vs vector only
Method: In another experiment, two samples were prepared; one sample was prepared by transferring SITH-1 into an astrocyte-like glial cell line (U373) via a retrovirus vector, and the other sample was prepared by introducing only the vector into U373. Each sample was stimulated with thapsigargin (TG), and an intracellular calcium concentration was measured using Fura2.

mice [7] = assay: Startle response (prepulse inhibition); type: in vivo; conditions: SITH-1 transferred using adenovirus vector
Method: as §1
The present inventors also measured a prepulse inhibition in order to check for any abnormality in a startle response, which abnormality is to be found in patients with manic-depressive illness and schizophrenia. Specifically, mice into which SITH-1 was transferred using the adenovirus vector were evaluated for a startle response by measuring the prepulse inhibition.

B1: SITH-1: protein expressed specifically during latent infection with HHV-6; approximately 17.5 kDa, 159 amino acids, SEQ ID NO: 1 (protein)
chain: MGYEEKVSATGKTRLKILACLIVLILAAAITMLTLEIISNQKRTTTDLEAVTVALKHVSTSLASCTESTTSVHTDSVTSQPTKNKESRKKIEGKSPSWVQALTTASGIILLFCIMMIFITCSWTTEKDTEKSEVQSYASSVETLDSLNEAIIPKTEMNV
modifications: Human herpesvirus 6
amount of CAML [1]: more CAML was found than in the untreated U373 cells | immobile time (mice [2]; retrovirus vector at HIGH titer, vs EGFP control mice): longer immobile time | immobile time (mice [2]; retrovirus vector at LOW titer): shorter immobile time | binding to CAML [3]: bind strongly | motor activity (wheel running activity) (mice [4]; adenovirus vector, three weeks later): motor activity enhanced | motor activity (wheel running activity) (mice [4]; lentivirus vector, eight weeks later): motor activity suppressed | immobile time (mice [5]): markedly shorter immobile time | intracellular calcium concentration [6]: considerably higher | prepulse inhibition (mice [7]): markedly lower prepulse inhibition
